Measured values from publication PMC13006735 (Research, 2026).

Key:
[1] = target: T1, Sudan virus (SUDV) glycoprotein GP (Sudan ebolavirus, strain  for …, UniProt Q7T9D9); assay: cell-based or functional assay
[2] = target: T1, Sudan virus (SUDV) glycoprotein GP; assay: SPR; settings: both partners purified

| Binder | IC50, neutralisation of SUDV GP pseudovirus (luciferase, Huh7 cells) [1] [µg/mL] | Kd [2] [nM] |
| --- | --- | --- |
| ADI-15946 (antibody, V domains shown, also called wild-type ADI-15946; parental antibody) VH: EVQLVESGGGLVKPGGSLRLSCAASGFTFSNAWMSWVRQAPGKGLEWVGRIKSKTDGGTIDYAAPVKGRFTISRDDSKNTVYLQMTSLKTEDTAVYYCTTYTEDMRYFDWLLRGGETFDYWGQGTLVTVSS VL: DIRLTQSPSSLSASVGDRVTITCRASHYISTYLNWYQQKPGKAPKLLIYAASNLQSGVPSRFSGSGFGTDFSLTISSLQPEDFATYHCQQSYSTPGRYTFGQGTKVEIK | 9.16 | 2.24 |
|  (antibody, V domains shown, also called A50Y/S52Y/L54R-LC variant) VH: EVQLVESGGGLVKPGGSLRLSCAASGFTFSNAWMSWVRQAPGKGLEWVGRIKSKTDGGTIDYAAPVKGRFTISRDDSKNTVYLQMTSLKTEDTAVYYCTTYTEDMRYFDWLLRGGETFDYWGQGTLVTVSS VL: DIRLTQSPSSLSASVGDRVTITCRASHYISTYLNWYQQKPGKAPKLLIYYAYNRQSGVPSRFSGSGFGTDFSLTISSLQPEDFATYHCQQSYSTPGRYTFGQGTKVEIK | 0.22 | – |
|  (antibody, V domains shown, also called H27Q/S52Y/G66R-LC variant) VH: EVQLVESGGGLVKPGGSLRLSCAASGFTFSNAWMSWVRQAPGKGLEWVGRIKSKTDGGTIDYAAPVKGRFTISRDDSKNTVYLQMTSLKTEDTAVYYCTTYTEDMRYFDWLLRGGETFDYWGQGTLVTVSS VL: DIRLTQSPSSLSASVGDRVTITCRASQYISTYLNWYQQKPGKAPKLLIYAAYNLQSGVPSRFSGSRFGTDFSLTISSLQPEDFATYHCQQSYSTPGRYTFGQGTKVEIK | 0.08 | – |
